Reference: patent US20240132624A1 (Ablynx, published 2024)
Where a chain is given by its changes, count along the chain named.

B1: T0263018B11 A33G (VHH, name in Kabat numbering)
VHH: EVQLVESGGGVVQPGGSLRLSCAASGFTFSSYGMYWVRQAPGKGLEWVSAISSGGGSTDYADSVKGRFTISRDNSKNTLYLQMNSLRPEDTALYYCAADTLYTSLTWYSYWGQGTLVTVSS
notes: FLAG3-His6 tagged
B2: T0263018B11 T57G (VHH, name in Kabat numbering)
VHH: B1 VHH with G33A, T58G
notes: FLAG3-His6 tagged
B3: T0263018B11 S100A (VHH, name in Kabat numbering)
VHH: B1 VHH with G33A, S104A
notes: FLAG3-His6 tagged
B4: T0263018B11 A33Q (VHH, name in Kabat numbering)
VHH: B1 VHH with G33Q
notes: FLAG3-His6 tagged
B5: T0263018B11 D58A (VHH, name in Kabat numbering)
VHH: B1 VHH with G33A, D59A
notes: FLAG3-His6 tagged
B6: T0263018B11 D58V (VHH, name in Kabat numbering)
VHH: B1 VHH with G33A, D59V
notes: FLAG3-His6 tagged
B7: T0263018B11 F29P (VHH, name in Kabat numbering)
VHH: B1 VHH with F29P, G33A
notes: FLAG3-His6 tagged
B8: T0263018B11 T57E (VHH, name in Kabat numbering)
VHH: B1 VHH with G33A, T58E
notes: FLAG3-His6 tagged
B9: T0263018B11 A33H (VHH, name in Kabat numbering)
VHH: B1 VHH with G33H
notes: FLAG3-His6 tagged
B10: T0263018B11 A93V (VHH, name in Kabat numbering)
VHH: B1 VHH with G33A, A97V
notes: FLAG3-His6 tagged
B11: T0263018B11 A94S (VHH, name in Kabat numbering)
VHH: B1 VHH with G33A, A98S
notes: FLAG3-His6 tagged
B12: T0263018B11 S100W (VHH, name in Kabat numbering)
VHH: B1 VHH with G33A, S104W
notes: FLAG3-His6 tagged
B13: T0263018B11 A33T (VHH, name in Kabat numbering)
VHH: B1 VHH with G33T
notes: FLAG3-His6 tagged
B14: T0263018B11 T96G (VHH, name in Kabat numbering)
VHH: B1 VHH with G33A, T100G
notes: FLAG3-His6 tagged
B15: T0263018B11 T57D (VHH, name in Kabat numbering)
VHH: B1 VHH with G33A, T58D
notes: FLAG3-His6 tagged
B16: T0263018B11 A33S (VHH, name in Kabat numbering)
VHH: B1 VHH with G33S
notes: FLAG3-His6 tagged
B17: T0263018B11 S56E (VHH, name in Kabat numbering)
VHH: B1 VHH with G33A, S57E
notes: FLAG3-His6 tagged
B18: T0263018B11 Y32N (VHH, name in Kabat numbering)
VHH: B1 VHH with Y32N, G33A
notes: FLAG3-His6 tagged
B19: T0263018B11 Y32M (VHH, name in Kabat numbering)
VHH: B1 VHH with Y32M, G33A
notes: FLAG3-His6 tagged
B20: T0263018B11 D58E (VHH, name in Kabat numbering)
VHH: B1 VHH with G33A, D59E
notes: FLAG3-His6 tagged
B21: T0263018B11 S30M (VHH, name in Kabat numbering)
VHH: B1 VHH with S30M, G33A
notes: FLAG3-His6 tagged
B22: T0263018B11 T28G (VHH, name in Kabat numbering)
VHH: B1 VHH with T28G, G33A
notes: FLAG3-His6 tagged
B23: T0263018B11 A33V (VHH, name in Kabat numbering)
VHH: B1 VHH with G33V
notes: FLAG3-His6 tagged
B24: T0263018B11 A93T (VHH, name in Kabat numbering)
VHH: B1 VHH with G33A, A97T
notes: FLAG3-His6 tagged
B25: T0263018B11 F29Q (VHH, name in Kabat numbering)
VHH: B1 VHH with F29Q, G33A
notes: FLAG3-His6 tagged
B26: T0263018B11 T57M (VHH, name in Kabat numbering)
VHH: B1 VHH with G33A, T58M
notes: FLAG3-His6 tagged
B27: T0263018B11 T57R (VHH, name in Kabat numbering)
VHH: B1 VHH with G33A, T58R
notes: FLAG3-His6 tagged
B28: T0263018B11 D58H (VHH, name in Kabat numbering)
VHH: B1 VHH with G33A, D59H
notes: FLAG3-His6 tagged
B29: T0263018B11 T28A (VHH, name in Kabat numbering)
VHH: B1 VHH with T28A, G33A
notes: FLAG3-His6 tagged
B30: T0263018B11 F29I (VHH, name in Kabat numbering)
VHH: B1 VHH with F29I, G33A
notes: FLAG3-His6 tagged
B31: T0263018B11 T57Y (VHH, name in Kabat numbering)
VHH: B1 VHH with G33A, T58Y
notes: FLAG3-His6 tagged
B32: T0263018B11 G26L (VHH, name in Kabat numbering)
VHH: B1 VHH with G26L, G33A
notes: FLAG3-His6 tagged
B33: T0263018B11 F27I (VHH, name in Kabat numbering)
VHH: B1 VHH with F27I, G33A
notes: FLAG3-His6 tagged
B34: T0263018B11 S52aD (VHH, name in Kabat numbering)
VHH: B1 VHH with G33A, S53D
notes: FLAG3-His6 tagged
B35: T0263018B11 A33P (VHH, name in Kabat numbering)
VHH: B1 VHH with G33P
notes: FLAG3-His6 tagged
B36: T0263018B11 S56M (VHH, name in Kabat numbering)
VHH: B1 VHH with G33A, S57M
notes: FLAG3-His6 tagged
B37: T0263018B11 Y32A (VHH, name in Kabat numbering)
VHH: B1 VHH with Y32A, G33A
notes: FLAG3-His6 tagged
B38: T0263018B11 Y98W (VHH, name in Kabat numbering)
VHH: B1 VHH with G33A, Y102W
notes: FLAG3-His6 tagged
B39: T0263018B11 W100cE (VHH, name in Kabat numbering)
VHH: B1 VHH with G33A, W107E
notes: FLAG3-His6 tagged
B40: T0263018B11 Y98L (VHH, name in Kabat numbering)
VHH: B1 VHH with G33A, Y102L
notes: FLAG3-His6 tagged
B41: T0263018B11 W100cM (VHH, name in Kabat numbering)
VHH: B1 VHH with G33A, W107M
notes: FLAG3-His6 tagged

biological target: T1, human FcRn/b2M (human, UniProt P61769 21-119, biotinylated); assay: SPR pH 6.0;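 also: surface plasmon resonance kinetics at 25 °C, diluted periplasmic extracts injected over immobilized ligand surfaces, 120 s association then 600–3600 s dissociation, running buffer containing 150 mM NaCl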
T1 construct: bought recombinant biotinylated protein (ACRO FCM-H82W4 or Immunitrack ITF01); also called hFcRn; hFcRn/hb2M
Method: (§1) All kinetic measurements have been performed on ProteOn XPR36 (BioRad Laboratories, Inc.), MASS-2 (Sierra sensors, Gmbh) or SPR-32 (Bruker Corporation). […] The phytip purified periplasmic extracts were diluted 1:10 in running buffer (CPA+150 mM NaCl+0.005% Tw20 at pH 5.5, pH 6.0 or pH 7.4) and injected over the ligand surfaces (association: 120 s at 45 μL/min; dissociation: 600s-3600 s at 45 μL/min). Experiments were carried out at 25° C.

Row | koff | Binder
1 | 0.0013 s⁻¹ | B1
2 | 0.0013 s⁻¹ | B2
3 | 0.00025 s⁻¹ | B3
4 | 0.0018 s⁻¹ | B4
5 | 0.0089 s⁻¹ | B5
6 | 0.015 s⁻¹ | B6
7 | 0.0026 s⁻¹ | B7
8 | 0.00076 s⁻¹ | B8
9 | 0.00076 s⁻¹ | B9
10 | 0.003 s⁻¹ | B10
11 | 0.0013 s⁻¹ | B11
12 | 0.00062 s⁻¹ | B12
13 | 0.00011 s⁻¹ | B13
14 | 0.014 s⁻¹ | B14
15 | 0.00073 s⁻¹ | B15
16 | 0.0015 s⁻¹ | B16
17 | 0.0026 s⁻¹ | B17
18 | 0.0025 s⁻¹ | B18
19 | 0.006 s⁻¹ | B19
20 | 0.0024 s⁻¹ | B20
21 | 0.00074 s⁻¹ | B21
22 | 0.00075 s⁻¹ | B22
23 | 0.00022 s⁻¹ | B23
24 | 0.0025 s⁻¹ | B24
25 | 0.0021 s⁻¹ | B25
26 | 0.00098 s⁻¹ | B26
27 | 0.00086 s⁻¹ | B27
28 | 0.012 s⁻¹ | B28

biological target: T2, cyno FcRn/b2M (cyno, UniProt Q8SPV9 24-297; Q8SPW0 21-119, biotinylated); assay: SPR pH 6.0;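 also: surface plasmon resonance kinetics at 25 °C, diluted periplasmic extracts injected over immobilized ligand surfaces, 120 s association then 600–3600 s dissociation, running buffer containing 150 mM NaCl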
T2 construct: bought recombinant biotinylated protein (Immunitrack ITF05 or ACRO FCM-C82W5); also called cFcRn; cFcRn/cb2M
T2 sequence (Q8SPV9 24-297 limits assumed, chain 1 of 2): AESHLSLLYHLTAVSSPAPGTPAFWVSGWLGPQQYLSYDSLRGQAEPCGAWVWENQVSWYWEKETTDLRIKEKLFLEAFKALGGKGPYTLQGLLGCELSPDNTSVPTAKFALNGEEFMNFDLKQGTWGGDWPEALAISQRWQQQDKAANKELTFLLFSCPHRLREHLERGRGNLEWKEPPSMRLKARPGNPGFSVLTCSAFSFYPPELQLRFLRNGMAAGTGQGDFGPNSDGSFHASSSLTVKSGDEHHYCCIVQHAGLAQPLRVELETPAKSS
T2 sequence (Q8SPW0 21-119 limits assumed, chain 2 of 2): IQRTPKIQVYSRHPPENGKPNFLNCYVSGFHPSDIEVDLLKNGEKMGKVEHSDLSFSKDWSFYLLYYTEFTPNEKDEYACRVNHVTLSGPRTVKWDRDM
Method: as §1

Row | koff | Binder
29 | 0.0011 s⁻¹ | B1
30 | 0.00052 s⁻¹ | B29
31 | 0.0015 s⁻¹ | B30
32 | 0.0011 s⁻¹ | B2
33 | 0.00021 s⁻¹ | B3
34 | 0.0027 s⁻¹ | B4
35 | 0.0026 s⁻¹ | B5
36 | 0.00084 s⁻¹ | B31
37 | 0.0025 s⁻¹ | B6
38 | 0.0019 s⁻¹ | B7
39 | 0.00055 s⁻¹ | B8
40 | 0.00077 s⁻¹ | B9
41 | 0.0021 s⁻¹ | B10
42 | 0.0011 s⁻¹ | B11
43 | 0.00029 s⁻¹ | B12
44 | 0.00087 s⁻¹ | B32
45 | 0.00011 s⁻¹ | B13
46 | 0.0084 s⁻¹ | B14

Row | koff | Binder
47 | 0.00063 s⁻¹ | B15
48 | 0.0013 s⁻¹ | B16
49 | 0.0019 s⁻¹ | B17
50 | 0.00036 s⁻¹ | B33
51 | 0.0018 s⁻¹ | B18
52 | 0.0025 s⁻¹ | B19
53 | 0.0012 s⁻¹ | B20
54 | 0.00069 s⁻¹ | B21
55 | 0.0002 s⁻¹ | B22
56 | 0.00024 s⁻¹ | B23
57 | 0.0019 s⁻¹ | B24
58 | 0.00089 s⁻¹ | B34
59 | 0.00099 s⁻¹ | B35
60 | 0.0017 s⁻¹ | B25
61 | 0.0007 s⁻¹ | B26
62 | 0.00071 s⁻¹ | B27
63 | 0.002 s⁻¹ | B28

biological target: T1, human FcRn/b2M; assay: SPR pH 7.4;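 also: surface plasmon resonance kinetics, periplasmic extracts diluted 1:10 flowed over immobilized target at 25 °C, 120 s association then 600–3600 s dissociation, buffer with 150 mM NaCl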
Method: as §1

Row | koff | Binder
64 | 0.034 s⁻¹ | B1
65 | 0.046 s⁻¹ | B29
66 | 0.065 s⁻¹ | B4
67 | 0.033 s⁻¹ | B31
68 | 0.14 s⁻¹ | B6
69 | 0.15 s⁻¹ | B10
70 | 0.046 s⁻¹ | B11
71 | 0.041 s⁻¹ | B32
72 | 0.0038 s⁻¹ | B13
73 | 0.059 s⁻¹ | B16
74 | 0.045 s⁻¹ | B33
75 | 0.08 s⁻¹ | B20
76 | 0.0082 s⁻¹ | B23
77 | 0.044 s⁻¹ | B34
78 | 0.041 s⁻¹ | B35
79 | 0.079 s⁻¹ | B28

biological target: T2, cyno FcRn/b2M; assay: SPR pH 7.4;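 also: surface plasmon resonance kinetics, periplasmic extracts diluted 1:10 flowed over immobilized target at 25 °C, 120 s association then 600–3600 s dissociation, buffer with 150 mM NaCl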
Method: as §1

Row | koff | Binder
80 | 0.04 s⁻¹ | B1
81 | 0.033 s⁻¹ | B29
82 | 0.083 s⁻¹ | B30
83 | 0.04 s⁻¹ | B2
84 | 0.0099 s⁻¹ | B3
85 | 0.13 s⁻¹ | B4
86 | 0.036 s⁻¹ | B5
87 | 0.035 s⁻¹ | B31
88 | 0.027 s⁻¹ | B6
89 | 0.024 s⁻¹ | B8
90 | 0.037 s⁻¹ | B9
91 | 0.14 s⁻¹ | B10
92 | 0.047 s⁻¹ | B11
93 | 0.015 s⁻¹ | B12
94 | 0.054 s⁻¹ | B32
95 | 0.0058 s⁻¹ | B13
96 | 0.21 s⁻¹ | B14

Row | koff | Binder
97 | 0.026 s⁻¹ | B15
98 | 0.065 s⁻¹ | B16
99 | 0.1 s⁻¹ | B17
100 | 0.031 s⁻¹ | B33
101 | 0.083 s⁻¹ | B18
102 | 0.18 s⁻¹ | B19
103 | 0.038 s⁻¹ | B20
104 | 0.022 s⁻¹ | B21
105 | 0.028 s⁻¹ | B22
106 | 0.013 s⁻¹ | B23
107 | 0.12 s⁻¹ | B24
108 | 0.051 s⁻¹ | B34
109 | 0.045 s⁻¹ | B35
110 | 0.088 s⁻¹ | B25
111 | 0.027 s⁻¹ | B26
112 | 0.026 s⁻¹ | B27
113 | 0.022 s⁻¹ | B28

biological target: T1, human FcRn/b2M; assay: SPR off-rate; pH 7.4 vs pH 6.0;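 also: surface plasmon resonance with diluted periplasmic extracts flowed over ligand surfaces, 120 s association and 600–3600 s dissociation at 25 °C, running buffer containing 150 mM NaCl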
Method: as §1

Row | kd ratio pH 7.4/6.0 | Binder
114 | 26 | B1
115 | 36 | B4
116 | 9 | B6
117 | 50 | B10
118 | 35 | B11
119 | 36 | B13
120 | 39 | B16
121 | 33 | B20
122 | 37 | B23
123 | 31 | B36
124 | 7 | B28

biological target: T2, cyno FcRn/b2M; assay: SPR off-rate; pH 7.4 vs pH 6.0;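 also: surface plasmon resonance with diluted periplasmic extracts flowed over ligand surfaces, 120 s association and 600–3600 s dissociation at 25 °C, running buffer containing 150 mM NaCl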
Method: as §1

Row | kd ratio pH 7.4/6.0 | Binder
125 | 36 | B1
126 | 70 | B37
127 | 48 | B4
128 | 11 | B6
129 | 45 | B38
130 | 67 | B10
131 | 43 | B11
132 | 71 | B39
133 | 36 | B40
134 | 54 | B13
135 | 50 | B16
136 | 32 | B20
137 | 53 | B23
138 | 11 | B28
139 | 59 | B41
